Reference: the DeepSol protein solubility set

assay: soluble on expression in E. coli; label from the status in PepcDB or PDB records

Soluble on expression in E. coli, not soluble:
MNIAKIVREAREQSRLTTLDFATGIFDEFIQLHGDRSFRDDGAVVGGIGWLGDQAVTVVGIQKGKSLQDNLKRNFGQPHPEGYRKALRLMKQAEKFGRPVVTFINTAGAYPGVGAEERGQGEAIARNLMEMSDLKVPIIAIIIGEGGSGGALALAVADRVWMLENSIYAILSPEGFASILWKDGTRAMEAAELMKITSHELLEMDVVDKVISEIGLSSKELIKSVKKELQTELARLSQKPLEELLEERYQRFRKY
MIAKEKILKGFETAEARWARFGPYYAMFPLEFAFDVVEKYSKNGDYIIDPFAGRCSSIYAGGVLGRNSLGLEINPVGWLYGTVKLHPAEKEEVIDRLLEIYSKRNYYNRAIQKMPEFYRICYCDEVLKFLLAARTHLDWRNNKVDATLMSILLIYLHAKIGEGLSNQMRMTKSMGMNYSVQWWKKNNMTTPPEINPCDFILKKIEWRYEKGKPKVSESAVVFGDSSNKLISIAERAINNDIKFSLLFTSPPYYSITDYHADQWLRLWLLGGSENPQSLKDKHKGRFVNKQEYYDLLDNVFGLCAKMMKRESTVYVRTDKREFTFNSTLEILKRHFPNHSVKIVEKPLTKDTKTQTKLFGDKTMKPGEVDIIMSRK
MDTTTTSSLKSAEKKDTDATPRAHSPEIDVEVIKSDCSTPEKQNGAVGNEQQMNNSTSTRRTDSNKNLSPPPQRLRTSSSTSDGTENLISSLSSWDWVTIDGLKLPAVTRNKERYVAVHMVQLKLLSKFPSDIPRDITRKFTMGSHKMTVTEAWTFNTINAVIRKFDLGCQLFTANDELVKLNDVQMFYWNVKLFNLKRVNGQYETAISSAENNVQLLATAMQLKKQVDSDIQVIFK
MQQPEQYCRFLCLVAHEFFHLWNIKRIRPQAFEVFDYDSENYTTSLWFVEGVTSYFDQLIPLWAGLFDAPTYLKLLSDSLNRYFHTPGRFVQSLSAASFDAWIKLYRPDENSINSQMSYYLKGELVALLLDLRLEHHHHHH
MGSDKIHHHHHHMKKRNITEFQVLSEIIRKQPHIKQKEIAENLGITVQAVSEHIRNLVKEGYVKSRGRGEYVVTEKGLRKLKNWISEFKDYLDEINTAVYRYKDIWPAIADEDVKDGETVYLFMKNGLLYASKQPKGEAKAKALYGGKKGEDIAICEIKGIIDVPKGKVIVFRIPPEVVGGSRAVDFNLIKENIDNLDDYVIATMGTVAYVVACKLGLKPDIRFAVPEAIVNACNRGCNVIALITGKMAEKVIKKLDNAKISYTVLDATKENK

Soluble on expression in E. coli, soluble:
MPRLLPVDSCDTEEYTLTEPPRNPQEYLRFVQREASLCPDVVVAQIDPKKLKKQSVNVSITGCLAAPEGFSPSFKWQQQQVSRFSEVRQSVNKHRQHWKAQFLDDNVVMPKTEDEDGWKRFCLGENVCLEIQLKEEDGVNPGLDYVKTGFPPFLSIVSKLSQSTVSAVLEYLINWFEERAFVPQLGRWLYALLACLEKPLLPEAHSLIRQLARRCSAVRANLESKDDDRLSALNLMICIVARYFEQNDLADKE
MGHHHHHHSHMSGSAMQEGLSPNHLKKAKLMFFYTRYPSSNMLKTYFSDVKFNRCITSQLIKWFSNFREFYYIQMEKYARQAINDGVTSTEELSITRDCELYRALNMHYNKANDFEVPERFLEVAQITLREFFNAIIAGKDVDPSWKKAIYKVICKLDSEVPEIFKSPNCLQELLHE
MLEFHNVPLKTILRRAIMSLPTNFNDILRFFEKDYDTAKEDNALSARGQFLQLYPLNHLKKMTLDDYVIGKGTASFCACVEVKTRTWANMQGATALKFGIYYGKSKSDPTVRYRFTQKFGDDDSTNKEVFANVKDALLDLIQSGKELDFRAIDENPLSQMFKAKILSLYFPEHFINICSKDHLKEIAMEMGIKEQQFISKYQHLLFKKKLEHKITRNWSNPKYMSFLYAQFIRKDLSSAPAVIVKKPQKRNHPEVNFEEITDNRDLIGKKSEEYALNWEKNRLIGLGYSKLAEEIDDRRNRPTYGYDFLSFNAPGDERYIEVKSIGRDGKEGAFRFFLSGNELTVSNLSNHSKNYYFYLVQYGKDGEPCNLYVKHAQDLYTNSEMSPCAYVVRFDLEEPALEHHHHHH
SESPEGAGPGEIVKDVKVPQAALNVSAHETGDMCRTPVAEEEEEVGIPIPAPGFLQVTERRRLHPLSRASCLRSPSWTKTRAEQNREKQPPSDPERQGTIVDTFLTVEEPKED
MESIGLVEVNSIARGIEAADAMLKAAQVDLLEAKPVCPGKYIVLICGDVAAVQSSVTAGKTMAAHSVLDDFILPNVHPQVLTAISAATPLTLIKALGIIETFSIASLIVAADTAAKTGQVDLVEIRIGMGIGGKSFVTLTGDVASVESSVAAGVMLASERGMLVDKVVIPSPHDHLKRCLC
KSAIVHLINYQDDAELATRALPELTKLLNDEDPVVVTKAAMIVNQLSKKEASRRALMGSPQLVAAVVRTMQNTSDLDTARCTTSILHNLSHHREGLLAIFKSGGIPALVRMLSSPVESVLFYAITTLHNLLLYQEGAKMAVRLADGLQKMVPLLNKNNPKFLAITTDCLQLLAYGNQESKLIILANGGPQALVQIMRNYSYEKLLWTTSRVLKVLSVCPSNKPAIVEAGGMQALGKHLTSNSPRLVQNCLWTLRNLSDVATKQEGLESVLKILVNQLSVDDVNVLTCATGTLSNLTCNNSKNKTLVTQNSGVEALIHAILRAGDKDDITEPAVCALRHLTSRHPEAEMAQNSVRLNYGIPAIVKLLNQPNQWPLVKATIGLIRNLALCPANHAPLQEAAVIPRLVQLLVKAHQDAQRHVAAGTQQPYTDGVRMEEIVEGCTGALHILARDPMNRMEIFRLNTIPLFVQLLYSSVENIQRVAAGVLCELAQDKEAADAIDAEGASAPLMELLHSRNEGTATYAAAVLFRISEDKNPDYRKRVSVELTNSLFKHD
MSLNSAAQAQSSDPVVIGCPAPLTGIVAADGIEFQRGIQMAADEINAVGGILGRPIELVFADTQSKGVDVVIQSAQRLIDRDNASALIAGYNLENGTALHDVAADAGVIAMHANTVAVHDEMVKSDPDRYWGTFQYDPPETLYGGGFLKFLKDIEDNGEFSRPNNKIAIITGPGIYSVNIANAIRDGAGEYGYDVSLFETVAIPVSDWGPTLAKLRADPPAVIVVTHFYPQDQALFMNQFMTDPTNSLVYLQYGASLAAFRDIAGDNSVGVTYATVLGTLQDEMGDAFAKAYKERYGDLSSTASGCQTYSALYAYSIAAALAGGPGAPYDDVQNKAVADRLRSLIFRGPVGTMRFHADTQSAWSYPTETNDPSLGMPHIFSQIFDKAEDGVLIAPAPYKKAGFKMPPWMKGEGHHHHHH
MESINYQILKRSEKKLLGLFFDYFQHVIKMHETLNKLLCEADVTKREKLIQAIYEMEDFSNKSEFKLINESIWAISKNSPLTNHLRLTITIIMCSRDLERICDYANNLTKFVKHYQHLDVSIFSKLVNLHKSVLNNLKQTFASLQDKEKPLTIQFENVTKILTEFEQQYRVVLTEYYDKVKDEKLSDRIFLIDLILSVKHIERINDYCYNIIKAFLFVKNPEVFN
QQKILENIRGIGTNTMTIFNGNGFGDRRSRHIQNLKISDANTLSKQSYIQSVTPNTSSSGILVVGNKSFTSANLYGIGEQYFDVEGLKLKQGRLLTEDDVDQSNQVVVLDESAKKAIFANENPLGKTVIFNKRPFRVIGVVSDQQLGGFPGNSLNLYSPYSTVLNKITGGSRIGSITVKISDDVNSTVAEKSLTELLKSLHGKKDFFIMNSDTIKQTIENTTGTMK
MSLTFCYPCRAFALLTRGFTSFMSGWPRIYYKLLNLPLSILVKSKSIPADPAPELGLDTSRPIMYVLPYNSKADLLTLRAQCLAHDLPDPLEPLEIDGTLLPRYVFIHGGPRVFTYYTPKEESIKLFHDYLDLHRSNPNLDVQMVPVSVMFGRAPGREKGEVNPPLRMLNGVQKFFAVLWLGRDSFVRFSPSVSLRRMADEHGTDKTIAQKLARVARMHFARQRLAAVGPRLPARQDLFNKLLASRAIAKAVEDEARSKKISHEKAQQNAIALMEEIAANFSYEMIRLTDRILGFTWNRLYQGINVHNAERVRQLAHDGHELVYVPCHRSHMDYLLLSYVLYHQGLVPPHIAAGINLNFWPAGPIFRRLGAFFIRRTFKGNKLYSTVFREYLGELFSRGYSVEYFVEGGRSRTGRLLDPKTGTLSMTIQAMLRGGTRPITLIPIYIGYEHVMEVGTYAKELRGATKEKESLPQMLRGLSKLRNLGQGYVNFGEPMPLMTYLNQHVPDWRESIDPIEAVRPAWLTPTVNNIAADLMVRINNAGAANAMNLCCTALLASRQRSLTREQLTEQLNCYLDLMRNVPYSTDSTVPSASASELIDHALQMNKFEVEKDTIGDIIILPREQAVLMTYYRNNIAHMLVLPSLMAAIVTQHRHISRDVLMEHVNVLYPMLKAELFLRWDRDELPDVIDALANEMQRQGLITLQDDELHINPVHSRTLQLLAAGARETLQRYAITFWLLSANPSINRGTLEKESRTVAQRLSVLHGINAPEFFDKAVFSSLVLTLRDEGYISDSGDAEPAETMKVYQLLAELITSDVRLTIESATQGEEGHHHHHH
MITTPLVHVASVEKGRSYEDFQKVYNAIALKLREDDEYDNYIGYGPVLVRLAWHISGTWDKHDNTGGSYGGTYRFKKEFNDPSNAGLQNGFKFLEPIHKEFPWISSGDLFSLGGVTAVQEMQGPKIPWRCGRVDTPEDTTPDNGRLPDADKDAGYVRTFFQRLNMNDREVVALMGAHALGKTHLKNSGYEGPWGAANNVFTNEFYLNLLNEDWKLEKNDANNEQWDSKSGYMMLPTDYSLIQDPKYLSIVKEYANDQDKFFKDFSKAFEKLLENGITFPKDAPSPFIFKTLEEQGL
MNHKVHHHHHHIEGRHMAVVKEVLEIAEKIKNMEIRGAGKIARSAAYALQLQAEKSKATNVDEFWKEMKQAAKILFETRPTAVSLPNALRYVMHRGKIAYSSGADLEQLRFVIINAAKEFIHNSEKALERIGEFGAKRIEDGDVIMTHCHSKAAISVMKTAWEQGKDIKVIVTETRPKWQGKITAKELASYGIPVIYVVDSAARHYMKMTDKVVMGADSITVNGAVINKIGTALIALTAKEHRVWTMIAAETYKFHPETMLGQLVEIEMRDPTEVIPEDELKTWPKNIEVWNPAFDVTPPEYVDVIITERGIIPPYAAIDILREEFGWALKYTEPWED
MDAENEDFDGAEDSDHTDNDKKEDELSLDNVLRLGGTKADYVMLAGISDTTELINGGKKVIIDDLEEGELEDFIKQLGIRAYADQQIIQDEEDPASSEPTQKEGKKAKGSKVKEDAAPNVKNKVTPSTQATKTSVQSTNLANATGKKAKQKPANLFEFIPRQFLLIKPGGKWFDIEYTSEGTSVAQNESLTCQYKALAQKLYENETALYKSKKSLQKGANSAWMKTRKLRTFSQHPFEELEEKSSGNKDTRDRRLILWYFEHQLKLQIADFVVTLDELAHDMVEATKMRALTTAYELLCNQPEQEKLLLVQIVNKLEDA
DQGIVIYNAQHENLVKSWVDGFTKDTGIKVTLRNGGDSELGNQLVQEGSASPADVFLTENSPAMVLVDNAKLFAPLDAATLAQVEPQYRPSHGRWIGIAARSTVFVYNPAKLSDAQLPKSLLDLAKPEWKGRWAASPSGADFQAIVSALLELKGEKATLAWLKAMKTNFTAYKGNSTVMKAVNAGQVDSGVIYHYYPFVDGAKTGENSNNIKLYYFKHQDPGAFVSISGGGVLASSKHQQQAQAFIKWITGKQGQEILRTNNAFEYAVGVGAASNPKLVPLKDLDAPKVDAAQLNSKKVVELMTEAGLL
SDYEKFLLFGDSITEFAFNTRPIEDGKDQYALGAALVNEYTRKMDILQRGFKGYTSRWALKILPEILKHESNIVMATIFLGANDACSAGPQSVPLPEFIDNIRQMVSLMKSYHIRPIIIGPGLVDREKWEKEKSEEIALGYFRTNENFAIYSDALAKLANEEKVPFVALNKAFQQEGGDAWQQLLTDGLHFSGKGYKIFHDELLKVIETFYPQYHPKNMQYKLKDWRDVLDDGSNIMS
GSGLSAQDISQPLQNSFIHTGHGDSDPRHCWGFPDRIDELYLGN
